The target of one experiment is T1, EPDRKAAVSHWQQQS
T1 construct: unphosphorylated counterpart of 1.m32; also called β-catenin peptide aa 15-29 without phosphorylated Ser23; phos Ser23 -
T1 peptide: EPDRKAAVSHWQQQS
Briefly: peptide aa 15-29 on microspheres, biotinylated BC2-Nb, streptavidin-PE. An excerpt: (§1) As negative controls, microspheres comprising Ovalbumin and the Myc-peptide ([…]) covalently coupled to OVA-microspheres were used. […] Evaluation of the PE-signals were done in a Flexmap 3D (Luminex).

The target of the next experiment is T2, β-catenin peptide 1-15 (human, UniProt P35222).
T2 construct: synthetic 15-mer; additional N-terminal cysteine for coupling; also called Start 1 End 15
T2 peptide (looked up): MATQADLMELDMAME
Put plainly: pepscan: 15-mer peptide on OVA-microspheres, biotinylated BC2-Nb, streptavidin-PE.
Text: as §1

For a further experiment, the target named is T3, β-catenin peptide 9-23 (human, UniProt P35222).
T3 construct: synthetic 15-mer; additional N-terminal cysteine for coupling; also called Start 9 End 23
T3 peptide (looked up): ELDMAMEPDRKAAVS
The experiment is described as above.
Text: as §1

Another experiment has as its target T4, β-catenin peptide 21-35 (human, UniProt P35222).
T4 construct: synthetic 15-mer; additional N-terminal cysteine for coupling; also called Start 21 End 35
T4 peptide (looked up): AVSHWQQQSYLDSGI
Described as above.
Text: as §1

The target of the next experiment is T5, β-catenin peptide 29-43 (human, UniProt P35222).
T5 construct: synthetic 15-mer; additional N-terminal cysteine for coupling; also called Start 29 End 43
T5 peptide (looked up): SYLDSGIHSGATTTA
The description is as above.
Text: as §1

In the next experiment the target is T6, β-catenin peptide 37-51 (human, UniProt P35222).
T6 construct: synthetic 15-mer; additional N-terminal cysteine for coupling; also called Start 37 End 51
T6 peptide (looked up): SGATTTAPSLSGKGN
The description is as above.
Text: as §1

The next experiment has as its target T7, β-catenin peptide 61-75 (human, UniProt P35222).
T7 construct: synthetic 15-mer; additional N-terminal cysteine for coupling; also called Start 61 End 75
T7 peptide (looked up): QVLYEWEQGFSQSFT
The experiment is described as above.
Text: as §1

The next experiment addresses T8, β-catenin peptide 69-83 (human, UniProt P35222).
T8 construct: synthetic 15-mer; additional N-terminal cysteine for coupling; also called Start 69 End 83
T8 peptide (looked up): GFSQSFTQEQVADID
Described as above.
Text: as §1

The next experiment has as its target T9, β-catenin peptide 89-103 (human, UniProt P35222).
T9 construct: synthetic 15-mer; additional N-terminal cysteine for coupling; also called Start 89 End 103
T9 peptide (looked up): TRAQRVRAAMFPETL
Described as above.
Text: as §1

Another experiment has as its target T10, β-catenin peptide 93-107 (human, UniProt P35222).
T10 construct: synthetic 15-mer; additional N-terminal cysteine for coupling; also called Start 93 End 107
T10 peptide (looked up): RVRAAMFPETLDEGM
Described as above.
Text: as §1

In experiment [1] the target is T11, β-catenin peptide 101-115 (human, UniProt P35222).
T11 construct: synthetic 15-mer; additional N-terminal cysteine for coupling
T11 peptide (looked up): ETLDEGMQIPSTQFD
The description is as above.
Text: as §1

The target of experiment [2] is T12, β-catenin peptide 113-127 (human, UniProt P35222).
T12 construct: synthetic 15-mer; additional N-terminal cysteine for coupling; also called Start 113 End 127
T12 peptide (looked up): QFDAAHPTNVQRLAE
The description is as above.
Text: as §1

Another experiment has as its target T13, BC2T S8M library peptide (human).
T13 construct: also called BC2TS8X: M
T13 peptide: Ac-PDRKAAVMHWQQ-NH2
Briefly: peptide library pulldown on immobilized Nb, LC-MS of supernatant; ratio vs GFP-Nb control (1 = not captured, 0 = captured). The gist of the method: (§2)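 Unbound peptide left in supernatant after 1 h pulldown in PBS/0.01% CHAPS measured by reversed-phase LC-MS (8–30% eluent B gradient, 20 min).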

For experiment [3], the target named is T14, BC2T W10A library peptide (human).
T14 construct: also called BC2TW10X: A
T14 peptide: Ac-PDRKAAVSHAQQ-NH2
The description is as above. The procedure, abridged: as §2

Experiment [4] has as its target T15, BC2T W10C* library peptide (human, SMILES …).
T15 construct: also called BC2TW10X: C*; C(Abu)
T15 peptide: Ac-PDRKAAVSH[GABA]QQ-NH2
Described as above. The procedure, abridged: as §2

The target of experiment [5] is T16, BC2T Q11N library peptide (human).
T16 peptide: Ac-PDRKAAVSHWNQ-NH2
The description is as above. The gist of the method:
as §2

Square brackets hold non-standard residues; d marks the D form. GABA = NCCCC(=O)O

Data on two molecules can be found in patent publication US20170137467A1 (CHROMOTEK, published 2017).

B1: BC2 nanobody (VHH)
VHH: QVQLVESGGGLVQPGGSLTLSCTASGFTLDHYDIGWFRQAPGKEREGVSCINNSDDDTYYADSVKGRFTIFMDNAKDTVYLQMNSLKPEDTAIYYCAEARGCKRGRYEYDFWGQGTQVTVSS
notes: Alpaca VHH, 122 aa; also called BC2-Nb; BC2 nanotrap (BC2-Nb immobilized on agarose/Sepharose beads); not shown: C-terminal 6xHis-tag added by the pHEN6 vector
In the case of B1, the binding result with EPDRKAAVSHWQQQS is reported as “binds”; with β-catenin peptide 1-15 it was “no binding (tested: 1 µg/ml BC2-Nb)”; with β-catenin peptide 9-23 it was “no binding (tested: 1 µg/ml BC2-Nb)”; with β-catenin peptide 21-35, “no binding (tested: 1 µg/ml BC2-Nb)”; with β-catenin peptide 29-43, “no binding (tested: 1 µg/ml BC2-Nb)”; with β-catenin peptide 37-51, “no binding (tested: 1 µg/ml BC2-Nb)”. In addition, the binding result (with β-catenin peptide 61-75; in the experiment with β-catenin peptide 69-83; with β-catenin peptide 89-103; with β-catenin peptide 93-107; in experiment [1]; in [2]) was “no binding (tested: 1 µg/ml BC2-Nb)” each time.

B2: BC2-Nb(R106E) (VHH)
VHH: QVQLVESGGGLVQPGGSLTLSCTASGFTLDHYDIGWFRQAPGKEREGVSCINNSDDDTYYADSVKGRFTIFMDNAKDTVYLQMNSLKPEDTAIYYCAEARGCKRGEYEYDFWGQGTQVTVSS
notes: Headlock mutant; immobilized on beads in the library pulldown
As for B2, the ratio with BC2T S8M library peptide was found to be 1; in experiment [3], 1.1; in experiment [4] it was 1.1; in experiment [5] it was 0.2.
